The target in experiment [1] is T1, 2C-121-270aa小肽段 #4 (CVA10病毒 (coxsackievirus A10)).
T1 peptide: SLATGIIARAIADKY
Description: ELISA on coated synthetic peptides. In general terms: An ELISA detects its analyte on a solid surface through an enzyme-linked reagent.

Experiment [2] deals with T2, 2C-121-270aa小肽段 #3 (CVA10病毒 (coxsackievirus A10)).
T2 peptide: PGTGKSLATGIIARA
The experiment is described as follows: ELISA on coated synthetic peptides.

The target in experiment [3] is T3, 2C-121-270aa肽段 (CVA10病毒 (coxsackievirus A10)).
T3 construct: Expressed in 293T cells from pcDNA6.0 and detected with a Flag antibody, so it carries a Flag tag
Description: western blot on truncated 2C fragments expressed in 293T cells. A general note: Immunoblotting shows a protein as a band on a membrane.

The target in experiment [4] is T4, CVB3病毒2C蛋白 (CVB3, UniProt P03313 1101-1429).
T4 construct: domain: 2C蛋白

Experiment [5] has as its target T5, CVA10病毒2C蛋白 (CVA10病毒 (coxsackievirus A10), UniProt Q65900 1112-1440).
T5 construct: In ELISA it was purified 2C protein from prokaryotic expression, coated on the plate; In western blot, immunofluorescence and flow cytometry it was the 2C protein made in CVA10-infected RD cells (intracellular); also called CVA10-2C
The experiment is described as follows: western blot on virus-infected RD cells.

The target in experiment [6] is T4, CVB3病毒2C蛋白. The source holds these as a separate data set.

Where two headings read alike, the source gives them in different places.

B1: M3-8单克隆抗体 (M3-8 mAb) (antibody, V domains shown)
VH: QVQLQQSGAELVRPGASVKLSCKALGYTFADNEMHWVKQTPVHGLEWIGGIHPGSGGTAYNQKFKGKATLTADKSSSTAYMELSSLTSEDSAVYYCTRDYYWYDEGFDYWGQGTTLTVSS
VL: DIVMTQTPLSLPVSLGDQASISCRSSQSLVHSNGNTYLHWYLQKPGQSPELLIYKVSNRFSGVPDRFSGSGSGTDFTLKISRVEAEDLGVYFCSQSTHIPLTFGAGTKLELK
notes: also called M3-8细胞上清; 纯化的单克隆抗体(M3-8 mAb)
With B1, the binding result in experiment [1] is listed as “binds”; in experiment [2] it was “binds”; in experiment [3], “binds”; in experiment [4] it was “no binding”.

B2: M3-8重组抗体 (antibody, V domains shown)
VH: QVQLQQSGAELVRPGASVKLSCKALGYTFADNEMHWVKQTPVHGLEWIGGIHPGSGGTAYNQKFKGKATLTADKSSSTAYMELSSLTSEDSAVYYCTRDYYWYDEGFDYWGQGTTLTVSS
VL: DIVMTQTPLSLPVSLGDQASISCRSSQSLVHSNGNTYLHWYLQKPGQSPELLIYKVSNRFSGVPDRFSGSGSGTDFTLKISRVEAEDLGVYFCSQSTHIPLTFGAGTKLELK
notes: also called M3-8 mAb重组抗体
As for B2, the binding result in experiment [5] is “binds”; in experiment [6], “no binding”.

The values are drawn from patent publication CN113150131A (SHANGHAI PUBLIC HEALTH CLINICAL CT, dated 2021).
